Measurements taken from article PMC3089514 (The Journal of Biological Chemistry, 2011).

T1: EGFP-tagged human orexin receptor 1 (human, UniProt O43613 1-425)
T1 sequence (looked up): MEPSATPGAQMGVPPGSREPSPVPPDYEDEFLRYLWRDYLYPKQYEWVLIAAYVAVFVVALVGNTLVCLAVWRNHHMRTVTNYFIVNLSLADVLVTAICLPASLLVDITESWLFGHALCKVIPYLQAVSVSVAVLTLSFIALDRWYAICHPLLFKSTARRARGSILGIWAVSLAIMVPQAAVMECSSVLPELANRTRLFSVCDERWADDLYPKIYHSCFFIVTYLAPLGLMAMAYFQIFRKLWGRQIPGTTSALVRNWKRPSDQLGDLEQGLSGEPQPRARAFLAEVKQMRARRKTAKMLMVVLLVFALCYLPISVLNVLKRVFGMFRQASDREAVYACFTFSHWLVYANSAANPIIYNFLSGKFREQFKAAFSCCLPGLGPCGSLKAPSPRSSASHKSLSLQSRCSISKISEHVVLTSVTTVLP

T2: EGFP-tagged human orexin receptor 2 (human, UniProt O43614 1-444)
T2 sequence (looked up): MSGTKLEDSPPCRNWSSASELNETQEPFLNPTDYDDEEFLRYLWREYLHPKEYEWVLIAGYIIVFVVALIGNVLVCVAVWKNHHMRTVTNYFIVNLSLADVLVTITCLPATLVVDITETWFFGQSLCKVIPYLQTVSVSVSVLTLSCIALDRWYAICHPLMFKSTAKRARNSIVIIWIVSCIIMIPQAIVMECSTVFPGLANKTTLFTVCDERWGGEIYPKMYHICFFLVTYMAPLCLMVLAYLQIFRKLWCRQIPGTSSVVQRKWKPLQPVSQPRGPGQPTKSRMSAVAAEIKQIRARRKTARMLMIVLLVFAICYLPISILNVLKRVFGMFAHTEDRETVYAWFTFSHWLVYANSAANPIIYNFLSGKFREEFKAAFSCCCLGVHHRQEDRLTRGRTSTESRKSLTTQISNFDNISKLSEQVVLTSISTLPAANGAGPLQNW


What was measured:
Experiment in all cases: FRET or BRET
[1] = biological target: T1, EGFP-tagged human orexin receptor 1
[2] = biological target: T2, EGFP-tagged human orexin receptor 2
[3] = biological target: T2, EGFP-tagged human orexin receptor 2; remark: listed apart in the source
[4] = biological target: T1, EGFP-tagged human orexin receptor 1; remark: listed apart in the source

EC50 of the agonist OxA for receptor-β-arrestin BRET [1] [µM]	EC50 of the agonist OxA for receptor-β-arrestin BRET [2] [µM]	EC50 of the agonist OxB for receptor-β-arrestin BRET [3] [µM]	EC50 of the agonist OxB for receptor-β-arrestin BRET [4] [µM]	Binder
0.719	0.215	0.384		Rluc-tagged β-arrestin 2 wild type (natural protein, UniProt P32120 1-420, looked up) MGEKPGTRVFKKSSPNCKLTVYLGKRDFVDHLDKVDPVDGVVLVDPDYLKDRKVFVTLTCAFRYGREDLDVLGLSFRKDLFIANYQAFPPTPNPPRPPTRLQERLLRKLGQHAHPFFFTIPQNLPCSVTLQPGPEDTGKACGVDFEIRAFCAKSLEEKSHKRNSVRLVIRKVQFAPEKPGPQPSAETTRHFLMSDRSLHLEASLDKELYYHGEPLNVNVHVTNNSTKTVKKIKVSVRQYADICLFSTAQYKCPVAQVEQDDQVSPSSTFCKVYTITPLLSNNREKRGLALDGKLKHEDTNLASSTIVKEGANKEVLGILVSYRVKVKLVVSRGGDVSVELPFVLMHPKPHDHIALPRPQSAATHPPTLLPSAVPETDAPVDTNLIEFETNYATDDDIVFEDFARLRLKGLKDEDYDDQFC
0.401	0.162	0.278	3.79	Rluc-tagged phosphorylation-independent β-arrestin 2 mutant R170E (natural protein, UniProt P32120 1-420, looked up) MGEKPGTRVFKKSSPNCKLTVYLGKRDFVDHLDKVDPVDGVVLVDPDYLKDRKVFVTLTCAFRYGREDLDVLGLSFRKDLFIANYQAFPPTPNPPRPPTRLQERLLRKLGQHAHPFFFTIPQNLPCSVTLQPGPEDTGKACGVDFEIRAFCAKSLEEKSHKRNSVRLVIEKVQFAPEKPGPQPSAETTRHFLMSDRSLHLEASLDKELYYHGEPLNVNVHVTNNSTKTVKKIKVSVRQYADICLFSTAQYKCPVAQVEQDDQVSPSSTFCKVYTITPLLSNNREKRGLALDGKLKHEDTNLASSTIVKEGANKEVLGILVSYRVKVKLVVSRGGDVSVELPFVLMHPKPHDHIALPRPQSAATHPPTLLPSAVPETDAPVDTNLIEFETNYATDDDIVFEDFARLRLKGLKDEDYDDQFC
0.777	0.376	0.334		Rluc-tagged β-arrestin 1 wild type (natural protein, UniProt P17870 1-418, looked up) MGDKGTRVFKKASPNGKLTVYLGKRDFVDHIDLVEPVDGVVLVDPEYLKERRVYVTLTCAFRYGREDLDVLGLTFRKDLFVANVQSFPPAPEDKKPLTRLQERLIKKLGEHAYPFTFEIPPNLPCSVTLQPGPEDTGKACGVDYEVKAFCAENLEEKIHKRNSVRLVIRKVQYAPERPGPQPTAETTRQFLMSDKPLHLEASLDKEIYYHGEPISVNVHVTNNTNKTVKKIKISVRQYADICLFNTAQYKCPVAMEEADDTVAPSSTFCKVYTLTPFLANNREKRGLALDGKLKHEDTNLASSTLLREGANREILGIIVSYKVKVKLVVSRGGLLGDLASSDVAVELPFTLMHPKPKEEPPHREVPEHETPVDTNLIELDTNDDDIVFEDFARQRLKGMKDDKEEEEDGTGSPRLNDR
0.412	0.139	0.228	3.77	Rluc-tagged phosphorylation-independent β-arrestin 1 mutant R169E (natural protein, UniProt P17870 1-418, looked up) MGDKGTRVFKKASPNGKLTVYLGKRDFVDHIDLVEPVDGVVLVDPEYLKERRVYVTLTCAFRYGREDLDVLGLTFRKDLFVANVQSFPPAPEDKKPLTRLQERLIKKLGEHAYPFTFEIPPNLPCSVTLQPGPEDTGKACGVDYEVKAFCAENLEEKIHKRNSVRLVIEKVQYAPERPGPQPTAETTRQFLMSDKPLHLEASLDKEIYYHGEPISVNVHVTNNTNKTVKKIKISVRQYADICLFNTAQYKCPVAMEEADDTVAPSSTFCKVYTLTPFLANNREKRGLALDGKLKHEDTNLASSTLLREGANREILGIIVSYKVKVKLVVSRGGLLGDLASSDVAVELPFTLMHPKPKEEPPHREVPEHETPVDTNLIELDTNDDDIVFEDFARQRLKGMKDDKEEEEDGTGSPRLNDR
